Test results: US9029508 (dated 2015)
Where “and” joins values, the source holds several entries; their conditions need not be identical. Equal values may be shown once. Read-outs that look alike come from different tables or passages of the source. Blank lines part the entries; values can stand above or below the binder they belong to.

Assays:
ErbB3 [1] = target: T1, ErbB3 (human, UniProt P21860); experiment: ELISA
ErbB3 [2] = target: T1, ErbB3; experiment: SPR
ErbB3 [3] = target: T1, ErbB3; experiment: ELISA; remark: listed apart in the source
CD19 = target: T2, CD19 (human, UniProt P15391); experiment: ELISA
T2 chain: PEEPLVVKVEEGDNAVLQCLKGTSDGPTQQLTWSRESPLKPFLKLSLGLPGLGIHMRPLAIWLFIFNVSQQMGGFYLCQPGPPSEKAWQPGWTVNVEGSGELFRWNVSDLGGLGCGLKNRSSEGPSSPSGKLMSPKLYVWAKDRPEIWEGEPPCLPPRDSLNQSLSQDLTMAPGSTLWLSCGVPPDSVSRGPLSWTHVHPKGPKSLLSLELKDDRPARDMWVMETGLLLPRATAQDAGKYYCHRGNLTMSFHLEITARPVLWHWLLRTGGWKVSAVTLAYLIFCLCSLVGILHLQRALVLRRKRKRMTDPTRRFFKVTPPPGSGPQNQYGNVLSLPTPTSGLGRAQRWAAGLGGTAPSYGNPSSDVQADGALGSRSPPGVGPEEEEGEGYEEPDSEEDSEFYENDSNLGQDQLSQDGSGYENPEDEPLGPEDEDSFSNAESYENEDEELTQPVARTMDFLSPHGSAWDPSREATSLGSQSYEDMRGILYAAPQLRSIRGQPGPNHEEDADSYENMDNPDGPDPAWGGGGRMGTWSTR

IGF1R [4] = target: T3, IGF1R (human, UniProt P08069); experiment: ELISA
IGF1R [5] = target: T3, IGF1R; experiment: ELISA; remark: listed apart in the source
IGF1R [6] = target: T3, IGF1R; experiment: SPR
DLL4 [7] = target: T4, DLL4 (human, UniProt Q9NR61); experiment: SPR
T4 sequence (Q9NR61 27-524): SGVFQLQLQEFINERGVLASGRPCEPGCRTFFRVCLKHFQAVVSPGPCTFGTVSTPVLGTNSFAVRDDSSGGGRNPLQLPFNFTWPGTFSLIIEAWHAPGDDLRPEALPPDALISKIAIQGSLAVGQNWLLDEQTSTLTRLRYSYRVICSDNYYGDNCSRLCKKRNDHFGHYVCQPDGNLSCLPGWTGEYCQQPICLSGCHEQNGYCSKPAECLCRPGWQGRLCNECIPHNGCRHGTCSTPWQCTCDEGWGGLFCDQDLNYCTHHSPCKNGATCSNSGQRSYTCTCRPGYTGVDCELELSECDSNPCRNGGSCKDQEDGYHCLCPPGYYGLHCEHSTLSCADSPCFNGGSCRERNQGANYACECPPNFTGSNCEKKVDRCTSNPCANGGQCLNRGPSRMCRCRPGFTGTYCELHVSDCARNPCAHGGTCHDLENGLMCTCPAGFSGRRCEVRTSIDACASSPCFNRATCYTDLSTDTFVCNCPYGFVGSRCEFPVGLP

DLL4 [8] = target: T4, DLL4; experiment: ELISA
DLL4 [9] = target: T4, DLL4; experiment: competition
CD40 = CD40 (human, UniProt P25942); experiment: ELISA
Sequence of CD40 (P25942 21-193): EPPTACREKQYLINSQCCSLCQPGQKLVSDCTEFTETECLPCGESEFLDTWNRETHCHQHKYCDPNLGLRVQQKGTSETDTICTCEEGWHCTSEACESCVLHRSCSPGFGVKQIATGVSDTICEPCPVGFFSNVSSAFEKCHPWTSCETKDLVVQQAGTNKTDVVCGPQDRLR

IGF2 [10] = target: T5, IGF2 (human, UniProt P01344); experiment: ELISA
IGF2 [11] = target: T5, IGF2; experiment: SPR
IGF2 [12] = target: T5, IGF2; experiment: ELISA; remark: listed apart in the source
IGF1 [13] = target: T6, IGF1 (human, UniProt P05019); experiment: SPR
IGF1 [14] = target: T6, IGF1; experiment: ELISA
IGF1 [15] = target: T6, IGF1; experiment: ELISA; remark: listed apart in the source

B2: AB062 (antibody, V domains shown)
VH: QVQLQQWGAGLLKPSETLSLTCAVYGGSFSGYYWSWIRQPPGKGLEWIGEINHSGSTNYNPSLKSRVTISVETSKNQFSLKLSSVTAADTAVYYCARDKWTWYFDLWGRGTLVTVSS
VL: not shown
- EC50 (ErbB3 [3]): 0.26 nM
- EC50 (ErbB3 [1]): 1.93 nM
- Kd (ErbB3 [2]): 1.36 nM

B5: DVD001 CD19 arm (antibody, V domains shown)
VH: QVQLQQSGAELVRPGSSVKISCKASGYAFSSYWMNWVKQRPGQGLEWIGQIWPGDGDTNYNGKFKGKATLTADESSSTAYMQLSSLASEDSAVYFCARRETTTVGRYYYAMDYWGQGTSVTVSS
VL: DILLTQTPASLAVSLGQRATISCKASQSVDYDGDSYLNWYQQIPGQPPKLLIYDASNLVSGIPPRFSGSGSGTDFTLNIHPVEKVDAATYHCQQSTEDPWTFGGGTKLEIKR
modifications: DVD-Ig inner
- EC50 (CD19): 12.9 nM

B7: DVD031 IGF1R arm (antibody, V domains shown)
VH: EVQLLESGGGLVQPGGSLRLSCTASGFTFSSYAMNWVRQAPGKGLEWVSAISGSGGTTFYADSVKGRFTISRDNSRTTLYLQMNSLRAEDTAVYYCAKDLGWSDSYYYYYGMDVWGQGTTVTVSS
VL: DIQMTQFPSSLSASVGDRVTITCRASQGIRNDLGWYQQKPGKAPKRLIYAASRLHRGVPSRFSGSGSGTEFTLTISSLQPEDFATYYCLQHNSYPCSFGQGTKLEIKR
modifications: DVD-Ig inner
- EC50 (IGF1R [4]): 171 nM
- EC50 (IGF1R [5]): 171 nM

B8: AB011 (antibody, V domains shown)
VH: B7 VH
VL: B7 VL
- Kd (IGF1R [6]): 0.848 nM
- EC50 (IGF1R [4]): 0.28 nM
- EC50 (IGF1R [5]): 0.3 nM

B9: DVD021 IGF1R arm (antibody, V domains shown)
VH: B7 VH
VL: B7 VL
modifications: DVD-Ig inner
- EC50 (IGF1R [4]): 135 nM
- EC50 (IGF1R [5]): 135 nM

B10: DVD032 IGF1R arm (antibody, V domains shown)
VH: B7 VH
VL: B7 VL
modifications: DVD-Ig outer
- Kd (IGF1R [6]): 0.829 nM
- EC50 (IGF1R [4]): 0.16 nM
- EC50 (IGF1R [5]): 0.2 nM

B11: DVD022 IGF1R arm (antibody, V domains shown)
VH: B7 VH
VL: B7 VL
modifications: DVD-Ig outer
- Kd (IGF1R [6]): 0.778 nM
- EC50 (IGF1R [4]): 0.26 nM
- EC50 (IGF1R [5]): 0.3 nM

B12: DVD257 DLL4 arm (antibody)
chain 1: EVQLVESGGGLVQPGGSLRLSCAASGFTFTDNWISWVRQAPGKGLEWVGYISPNSGFTYYADSVKGRFTISADTSKNTAYLQMNSLRAEDTAVYYCARDNFGGYFDYWGQGTLVTVSS
chain 2: DIQMTQSPSSLSASVGDRVTITCRASQDVSTAVAWYQQKPGKAPKLLIYSASFLYSGVPSRFSGSGSGTDFTLTISSLQPEDFATTYYCQQSYTGTVTFGQGTKVEIKR
modifications: DVD-Ig outer
- Kd (DLL4 [7]): 0.234 nM
- EC50 (DLL4 [8]): 0.28 nM
- IC50 (DLL4 [9]): 0.38 nM

B14: DVD009 CD40 arm (antibody, V domains shown)
VH: QVQLVESGGGVVQPGRSLRLSCAASGFTFSSYGMHWVRQAPGKGLEWVAVISYEESNRYHADSVKGRFTISRDNSKITLYLQMNSLRTEDTAVYYCARDGGIAAPGPDYWGQGTLVTVSS
VL: DIVMTQSPLSLTVTPGEPASISCRSSQSLLYSNGYNYLDWYLQKPGQSPQVLISLGSNRASGVPDRFSGSGSGTDFTLKISRVEAEDVGVYYCMQARQTPFTFGPGTKVDIRR
modifications: DVD-Ig inner
- EC50 (CD40): 3.55 nM

B15: AB009 (antibody, V domains shown)
VH: B14 VH
VL: B14 VL
- EC50 (CD40): 0.99 nM

B16: AB063 (antibody, V domains shown)
VH: EVQLVESGGGLVQPGGSLRLSCAASGFTFSIYSMNWVRQAPGKGLEWVSYISSSSSTIYYADSVKGRFTISRDNAKNSLYLQMNSLRDEDTAVYYCARDRGDFDAFDIWGQGTMVTVSS
VL: DIQMTQSPSSLSASVGDRVTITCQASQDITNYLNWYQQKPGKAPKLLIYDASNLETGVPSRFSGSGSGTDFTFTISSLQPEDIATYNCQQCENFPITFGQGTRLEIKR
- EC50 (ErbB3 [3]): 0.67 nM
- EC50 (ErbB3 [1]): 0.28 nM
- Kd (ErbB3 [2]): 0.15 nM

B19: AB010 (antibody, V domains shown)
VH: QVQLVQSGAEVKKPGASVKVSCKASGYTFTSYDINWVRQATGQGLEWMGWMNPNSGNTGYAQKFQGRVTMTRNTSISTAYMELSSLRSEDTAVYYCARDPYYYYYGMDVWGQGTTVTVSS
VL: QSVLTQPPSVSAAPGQKVTISCSGSSSNIENNHVSWYQQLPGTAPKLLIYDNNKRPSGIPDRFSGSKSGTSATLGITGLQTGDEADYYCETWDTSLSAGRVFGGGTKLTVLG
- EC50 (IGF2 [10]): 10 nM and 18.1 nM
- Kd (IGF2 [11]): < 0.000299 nM and 0.000423 nM
- EC50 (IGF2 [12]): 18.1 nM and 10 nM
- Kd (IGF1 [13]): 0.388 nM
- EC50 (IGF1 [14]): 4.77 nM
- EC50 (IGF1 [15]): 4.8 nM

B20: DVD041 IGF1,2 arm (antibody, V domains shown)
VH: B19 VH
VL: B19 VL
modifications: DVD-Ig inner
- EC50 (IGF2 [10]): 7340 nM
- Kd (IGF2 [11]): < 0.0124 nM
- EC50 (IGF2 [12]): 7340 nM
- EC50 (IGF1 [14]): 381 nM
- EC50 (IGF1 [15]): 381 nM

B21: DVD042 IGF1,2 arm (antibody, V domains shown)
VH: B19 VH
VL: B19 VL
modifications: DVD-Ig outer
- EC50 (IGF2 [10]): 17.6 nM
- Kd (IGF2 [11]): 0.000998 nM
- EC50 (IGF2 [12]): 17.6 nM
- EC50 (IGF1 [14]): 2.54 nM
- EC50 (IGF1 [15]): 2.5 nM

B22: DVD030 IGF1,2 arm (antibody, V domains shown)
VH: B19 VH
VL: B19 VL
modifications: DVD-Ig outer
- EC50 (IGF2 [10]): 5.5 nM
- Kd (IGF2 [11]): 0.00234 nM
- EC50 (IGF2 [12]): 5.49 nM
- Kd (IGF1 [13]): 0.292 nM
- EC50 (IGF1 [14]): 1.75 nM
- EC50 (IGF1 [15]): 1.8 nM

Continued, values first:

- EC50 (ErbB3 [1]): 1.96 nM
- Kd (ErbB3 [2]): 0.82 nM
B1: DVD299 ErbB3 arm (antibody, V domains shown)
VH: B2 VH
VL: not shown
modifications: DVD-Ig outer

- EC50 (CD19): 0.07 nM
B3: DVD002 CD19 arm (antibody, V domains shown)
VH: B5 VH
VL: B5 VL
modifications: DVD-Ig outer

- EC50 (CD19): 0.12 nM
B4: DVD014 CD19 arm (antibody, V domains shown)
VH: B5 VH
VL: B5 VL
modifications: DVD-Ig outer

- EC50 (CD19): 7.29 nM
B6: DVD013 CD19 arm (antibody, V domains shown)
VH: B5 VH
VL: B5 VL
modifications: DVD-Ig inner

- EC50 (CD40): 0.82 nM
B13: DVD010 CD40 arm (antibody, V domains shown)
VH: B14 VH
VL: B14 VL
modifications: DVD-Ig outer

- EC50 (ErbB3 [3]): > 10 nM
- EC50 (ErbB3 [1]): 151 nM
B17: DVD306 ErbB3 arm (antibody, V domains shown)
VH: B16 VH
VL: B16 VL
modifications: DVD-Ig inner

- EC50 (ErbB3 [3]): 1.16 nM
- EC50 (ErbB3 [1]): 0.44 nM
- Kd (ErbB3 [2]): 0.0603 nM
B18: DVD305 ErbB3 arm (antibody, V domains shown)
VH: B16 VH
VL: B16 VL
modifications: DVD-Ig outer
